# Results taken from the nanobody polyreactivity screen of Harvey et al. (2022).
# Experiment: yeast display, Sf9 membrane polyspecificity reagent, FACS + sequencing; frameworks hold sequencing errors
# How it was run: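 Using colony PCR, genes from sorted yeast display clones were amplified, then sequenced on MiSeq at 2 × 250 and filtered by CDR length. The clones had been stained with 10% biotinylated, detergent-solubilized Sf9 membrane reagent for 1 hour at 4 °C and sorted by FACS into low and high (top ~1%) gates on anti-HA and streptavidin fluorescence. Polyreactivity labels come from the gate of origin.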
row,Sequence,polyreactivity (PSR sort gate)
1,QVQLVESGGGLVQAGGSLRLSCAASGSTLQSYAMGWYRQAPGKERELVAGIRISGGNTRYADSVKGRFTISRDNAKNTVYLQMNSLKPEDTAVYYCAALTGFYNLRPYGYWGQGTQVTVSS,high polyreactivity
2,QVQLVESGGGLVQAGGSLRLSCAASGSTLRGNAMGWYRQAPGKERELVAAISWSGGSTYYADSVKGRFTISRDNAKNTVYLQMNSLKPEDTAVYYRATASPSTRYGRLGDYWGQGTQVTVSS,low polyreactivity
3,QVQLVESGGGLVQAGGSLRLSCAASGSTLRPYAMGWYRQAPGKERELVAAISKSGASTYYADSVKGRFTISRDNAQNTVYLQMNSLKPEDTAVYYCNAGRGTGETLYGYDYWGQGTQVTVSS,high polyreactivity
4,QVQLVESGGGLVQAGGSLRLSCAASGSTLRPYAMGWYRQAPGKERELVAAISKSGASTYYADSVKGRVTISRDNANNTVYFQMNSLKPEDTAVNYCNAGRGTWETLYGYDYWGQGTQVTVSS,high polyreactivity
5,QVQLVESGGGLVQAGGSLRLSCAASGSTLRRYAMGWYRQAPGKEMELVAAISGSGDSTYYADSVKGRFTISRDNAKNTVYLQMNSLKPEDTAVYYCNAVYAFNGYDYWGQGTQVTVSS,low polyreactivity
6,QVQLVESGGGLVQAGGSLRLSCAASGSTLRRYAMGWYRQAPGKERELVAAITRGSSTTYADSVKGRFTISRDNAKNTVYLQMNSLKPEDTAVYYCNTYFSRNFDYWGQGTQVTVSS,high polyreactivity
7,QVQLVESGGGLVQAGGSLRLSCAASGSTLRYYAMGWYRQAPGKEREMVADITSSGNTNYADSVKGRFTISRDNAKNTVYLQMNSLKPEDTAVYYCAGDSANYQWYLSWQKDDYWGQGTQVTVSS,low polyreactivity
8,QVQLVESGGGLVQAGGSLRLSCAASGSTLSIYAMGWYRQAPGKERELVAAISSIGGSTYYADSVKGRFTISRDNAKNTVYLQMNSLKPEDTAVYYCAAELYGGYYYWGQGTQVTVSS,high polyreactivity
9,QVQLVESGGGLVQAGGSLRLSCAASGSTLSIYAMGWYRQAPGKERELVATIRWSAGRTSYADSVKGRFTISRDNAMNTVYLQMNSLKPEDTAVYSCNAVRYRYYFYWTGKSYDYWGQGTQVTVSS,high polyreactivity
10,QVQLVESGGGLVQAGGSLRLSCAASGSTLSQNAMGWYRQAPGKEREFVADISGSGDSTYYADSVKGRFTISRDNAKNTVYLQMNSLKPEDTAVYYCATPSPHVGLKWEYDYWGQVTQVTVSS,low polyreactivity
11,QVQLVESGGGLVQAGGSLRLSCAASGSTLSRYAMGWYRQAPGKERELVATITRRGGSTFYADSVKGRFTISRDNAKNTVYLQMNSLKPEDTAVYYCAVGRLFWGQGTQVTVSS,low polyreactivity
12,QVQLVESGGGLVQAGGSLRLSCAASGSTLSSNAMGWYRQAPGKERELVAAINRRGGTYYADSVKGRFTISRDNAKNTVYLQMNSLKPEDTAVYYCAAASPYHEYDYWGQGTQVTVSS,low polyreactivity
13,QVQLVESGGGLVQAGGSLRLSCAASGSTLSVYAMGWYRQAPGKERELVAVISRSGGSTYYADSVKGRFTISRDNAKNTVYLQMNSLKPEDTAVYYCAARGRRTGDYDYWGQGTQVTVSS,high polyreactivity
14,QVQLVESGGGLVQAGGSLRLSCAASGSTLTWNAMGWYRQAPGKERELVATISYSGSSTYYADSVKGRFTISRDNAKNSVYLQMFSLKPEDTAGYYCNAQELAYGHGFDSWGLGTQVTVSS,low polyreactivity
15,QVQLVESGGGLVQAGGSLRLSCAASGSTLVDYAMGWYRQAPGKERELVAAISASGGTTYYADSVKGRFTISRDNAKNTVYLQMNSLKPEDTAVYYCAKYHYYYFPYDYWGQGTQVTVSS,low polyreactivity
16,QVQLVESGGGLVQAGGSLRLSCAASGSTLVPNAMGWYRQAPGKERELVATISFSSGRTYYADSVKGRFTISRDNAKNTVYLQMNSLKPEDTAVYYCNARSFGPTESRYDYWGQGTQVTVSS,high polyreactivity
17,QVQLVESGGGLVQAGGSLRLSCAASGSTLVSNAMGGYRQAAGKERELVAAITSGGSTYYADSVKGRFTISRDNAKNTVYLQMNSRKPEDTAVYYCNADRTRGYQRYDYWGQGTQVTVSS,high polyreactivity
